B1: HDV Ribozyme (parent)
chain: GGCCGGCAUGGUCCCAGCCUCCUCGCUGGCGCCGGCUGGGCAACAUUCCGAGGGGACCGUCCCCUCGGUAAUGGCGAAUGGGACCCA

Variants of: B1
Experiment: self-cleavage, relative activity (ratio to wild type); higher = more cleavage; co-transcriptional

Going from GGCCGGCAUGGUCCCAGCCUCCUCGCUGGCGCCGGUUGGGCAACAUUCCGAGGGGACCGUCCCCUCGGUAAUGGCGAAUGGUACCCA [C36U G82U] to GGCCGGCAUGGUCCCAGCCUCCUCGCUGGCGCCGGUUGGGCAACAUUCCGAGGGGACCGUCCCCUCGGUAAUGGCGAAUGGCACCCA [C36U G82C], the self-cleavage rises from 0.234 to 0.269.

Compared with GGCCGGCAUGGUCCCAGCCUCCUCGCUGGCGCCGGUUGGGCAACAUUCCGAGGGGACCGUCCCCUCGGUAAUGGCGAAUGGAACCCA [C36U G82A], GGCCGGCAUGGUCCCAGCCUCCUCGCUGGCGCCGGUUGGGCAACAUUCCGAGGGGACCGUCCCCUCCGUAAUGGCGAAUGGGACCCA [C36U G67C] is higher in self-cleavage: 0.327 for the first, 0.831 for the second.

Compared with GGCCGGCAUGGUCCCAGCCUCCUCGCUGGCGCCGGUUGGGCAACAUUCCGAGGGGACCGUCCCCUCGGUAAUGGCCAAUGGGACCCA [C36U G76C], GGCCGGCAUGGUCCCAGCCUCCUCGCUGGCGCCGGUUGGGCAACAUUCCGAGGGGACCGUCCCCUCGGUAAUGGCUAAUGGGACCCA [C36U G76U] is higher in self-cleavage: 0.909 for the first, 1.05 for the second.

Compared with GGCCGGCAUGGUCCCAGCCUCCUCGCUGGCGCCGGCAGGGCAACAUUCCGAGGGGCCCGUCCCCUCGGUAAUGGCGAAUGGGACCCA [U37A A56C], GGCCGGCAUGGUCCCAGCCUCCUCGCUGGCGCCGGCAGGGCAACAUUCCGAGGGGGCCGUCCCCUCGGUAAUGGCGAAUGGGACCCA [U37A A56G] is lower in self-cleavage: 0.229 for the first, 0.107 for the second.

Going from GGCCGGCAUGGUCCCAGCCUCCUCGCUGGCGCCGGUUGGGCAACAUUCCGAGGGGACCGUCCCCUCGAUAAUGGCGAAUGGGACCCA [C36U G68A] to GGCCGGCAUGGUCCCAGCCUCCUCGCUGGCGCCGGUUGGGCAACAUUCCGAGGGGACCGUCCCCUCGCUAAUGGCGAAUGGGACCCA [C36U G68C], the self-cleavage falls from 0.626 to 0.563.

Going from GGCCGGCAUGGUCCCAGCCUCCUCGCUGGCGCCGGCAGGGCGACAUUCCGAGGGGACCGUCCCCUCGGUAAUGGCGAAUGGGACCCA [U37A A42G] to GGCCGGCAUGGUCCCAGCCUCCUCGCUGGCGCCGGUUGGGCAACAUUCCGAGGGGACCGUCCCCUCGGUAAAGGCGAAUGGGACCCA [C36U U72A], the self-cleavage rises from 0.0665 to 0.324.

Going from GGCCGGCAUGGUCCCAGCCUCCUCGCUGGCGCCGGUUGGGCAACAUUCCGAGGGGACCGACCCCUCGGUAAUGGCGAAUGGGACCCA [C36U U60A] to GGCCGGCAUGGUCCCAGCCUCCUCGCUGGCGCCGGUUGGGCAACAUUCCGAGGGGACCGCCCCCUCGGUAAUGGCGAAUGGGACCCA [C36U U60C], the self-cleavage rises from 0.727 to 0.959.

Going from GGCCGGCAUGGUCCCAGCCUCCUCGCUGGCGCCGGUUGGGCAACAUUCCGAGGGGACCGGCCCCUCGGUAAUGGCGAAUGGGACCCA [C36U U60G] to GGCCGGCAUGGUCCCAGCCUCCUCGCUGGCGCCGGUUGGGCAACACUCCGAGGGGACCGUCCCCUCGGUAAUGGCGAAUGGGACCCA [C36U U46C], the self-cleavage falls from 0.508 to 0.481.

Compared with GGCCGGCAUGGUCCCAGCCUCCUCGCUGGCGCCGGCAGGGCAACAUUCCGCGGGGACCGUCCCCUCGGUAAUGGCGAAUGGGACCCA [U37A A51C], GGCCGGCAUGGUCCCAGCCUCCUCGCUGGCGCCGGUUGGGCAACAUUCCGAGGGGACCGUCCCCUCGGAAAUGGCGAAUGGGACCCA [C36U U69A] is higher in self-cleavage: 0.217 for the first, 0.627 for the second.

First: GGCCGGCAUGGUCCCAGCCUCCUCGCUGGCGCCGGUUGGGCAACAUUCCGAGGGCACCGUCCCCUCGGUAAUGGCGAAUGGGACCCA [C36U G55C]
Second: GGCCGGCAUGGUCCCAGCCUCCUCGCUGGCGCCGGUUGGGCAACAUUCCGAGGGGACCGUCCCCUCGGUAAUGGCGAAUGAGACCCA [C36U G81A]
The self-cleavage of the first is higher: 0.789 for the first, 0.24 for the second.

Compared with GGCCGGCAUGGUCCCAGCCUCCUCGCUGGCGCCGGUCGGGCAACAUUCCGAGGGGACCGUCCCCUCGGUAAUGGCGAAUGGGACCCA [C36U U37C], GGCCGGCAUGGUCCCAGCCUCCUCGCUGGCGCCGGUUGGGCAACAUUCCGAGGGGACCGUCCCCGCGGUAAUGGCGAAUGGGACCCA [C36U U65G] is lower in self-cleavage: 0.867 for the first, 0.582 for the second.

Going from GGCCGGCAUGGUCCCAGCCUCCUCGCUGGCGCCGGUUGGGCAACAUUCCGAGGGGACCGUCCCCCCGGUAAUGGCGAAUGGGACCCA [C36U U65C] to GGCCGGCAUGGUCCCAGCCUCCUCGCUGGCGCCGGUUGGGCAACAUUCCGAGGGGACCGUCCCCACGGUAAUGGCGAAUGGGACCCA [C36U U65A], the self-cleavage falls from 0.712 to 0.665.

Compared with GGCCGGCAUGGUCCCAGCCUCCUCGCUGGCGCCGGCAGGGCAACGUUCCGAGGGGACCGUCCCCUCGGUAAUGGCGAAUGGGACCCA [U37A A45G], GGCCGGCAUGGUCCCAGCCUCCUCGCUGGCGCCGGUUGGGCAACAUUCCGAGGGGACCGUCCCCUCGGUAAUGGCGAAUUGGACCCA [C36U G80U] is higher in self-cleavage: 0.125 for the first, 0.224 for the second.

Compared with GGCCGGCAUGGUCCCAGCCUCCUCGCUGGCGCCGGUUGGGCAACAUUCCGAGGGGACCGUCCCCUCGGUAAUCGCGAAUGGGACCCA [C36U G73C], GGCCGGCAUGGUCCCAGCCUCCUCGCUGGCGCCGGUUGGGCAACAUUCCGAGGGGACCUUCCCCUCGGUAAUGGCGAAUGGGACCCA [C36U G59U] is higher in self-cleavage: 0.161 for the first, 0.806 for the second.

Compared with GGCCGGCAUGGUCCCAGCCUCCUCGCUGGCGCCGGUUGGGCAACAUUCCGAGGGGACCGUCCCCUCGGUAAUGUCGAAUGGGACCCA [C36U G74U], GGCCGGCAUGGUCCCAGCCUCCUCGCUGGCGCCGGUUGGGCAACAUUCCGAGGGGACCGUCCCCUCGGUAAUGGCGAAGGGGACCCA [C36U U79G] is higher in self-cleavage: 0.191 for the first, 0.325 for the second.

Going from GGCCGGCAUGGUCCCAGCCUCCUCGCUGGCGCCGGUUGGGCAACAUCCCGAGGGGACCGUCCCCUCGGUAAUGGCGAAUGGGACCCA [C36U U47C] to GGCCGGCAUGGUCCCAGCCUCCUCGCUGGCGCCGGUUGGGCAACAUGCCGAGGGGACCGUCCCCUCGGUAAUGGCGAAUGGGACCCA [C36U U47G], the self-cleavage rises from 0.467 to 0.665.
